Results reported in patent publication US20130129739A1 (Bayer, published 2013).

B1: 005-C04-41-2 (Fab, V domains shown)
VH: EVQLLESGGGLVQPGGSLRLSCAASGFTFSSYWNHWVRQAPGKGLEWVSDISRASSYTNYADSVKGRFTISRDNSKNTLYLQMNSLRAEDTAVYYCARGLDARRMDYWGQGTLVTVTS
VL: QSVLTQPPSASGTPGQRVTISCTGSSSNIGYGYVVHWYQQLPGTAPKLLIYRNNQRPSGVPDRFSGSKSGTSASLAISGLRSEDEADYYCAAWDDSLNGWLFGGGTKLTVLG
notes: Maturated 005-C04 variant; Fab in E. coli supernatant, flag-detected
B2: 005-C04-29-17-3 (Fab, V domains shown)
VH: EVQLLESGGGLVQPGGSLRLSCAASGFTFSSYWMHWVRQAPGKGLEWVSDISSASSYTNYADSVKGRFTISRDNSKNTLYLQMNSLRAEDTAVYYCARGLDARRMDYWGQGTLVTVTS
VL: QSVLTQPPSASGTPGQRVTISCTGSSSNIGAGYVVHWYQQLPGTAPKLLIYRNNQRPSGVPDRFSGSKSGTSASLAISGLRSEDEADYYCAAWDDSLFGWLFGGGTKLTVLG
notes: as for B1
B3: 005-C04-29-17-0 (Fab, V domains shown)
VH: EVQLLESGGGLVQPGGSLRLSCAASGFTFSSYWMHWVRQAPGKGLEWVSDISSASSYTNYADSVKGRFTISRDNSKNTLYLQMNSLRAEDTAVYYCARGLDARRMDYWGQGTLVTVTS
VL: QSVLTQPPSASGTPGQRVTISCTGSSSNIGAGYVVHWYQQLPGTAPKLLIYRNNQRPSGVPDRFSGSKSGTSASLAISGLRSEDEADYYCAAWDDSLSGWLFGGGTKLTVLG
notes: as for B1
B4: 005-C04-11-5 (Fab, V domains shown)
VH: EVQLLESGGGLVQPGGSLRLSCAASGFTFSSYWWHWVRQAPGKGLEWVSDISRLSPYTNYADSVKGRFTISRDNSKNTLYLQMNSLRAEDTAVYYCARGLDARRMDYWGQGTLVTVTS
VL: QSVLTQPPSASGTPGQRVTISCTGSSSNIGYGYVVHWYQQLPGTAPKLLIYRNNVRPSGVPDRFSGSKSGTSASLAISGLRSEDEADYYCAAWDDSLNGWLFGGGTKLTVLG
notes: as for B1
B5: 005-C04-10-3 (Fab, V domains shown)
VH: EVQLLESGGGLVQPGGSLRLSCAASGFTFSSYWWHWVRQAPGKGLEWVSDIARLSPYTNYADSVKGRFTISRDNSKNTLYLQMNSLRAEDTAVYYCARGLDARRMDYWGQGTLVTVTS
VL: QSVLTQPPSASGTPGQRVTISCTGSSSNIGYGYVVHWYQQLPGTAPKLLIYRNNVRQSGVPDRFSGSKSGTSASLAISGLRSEDEADYYCAAWDDSLNGWLFGGGTKLTVLG
notes: as for B1
B6: 005-C04-20-12-7 (Fab, V domains shown)
VH: EVQLLESGGGLVQPGGSLRLSCAASGFTFSSYWMHWVRQAPGKGLEWVSDISSASSYTNYADSVKGRFTISRDNSKNTLYLQMNSLRAEDTAVYYCARGLDARRMDYWGQGTLVTVTS
VL: QSVLTQPPSASGTPGQRVTISCTGSSSNIGAGYVVHWYQQLPGTAPKLLIYRNNQRQSGVPDRFSGSKSGTSASLAISGLRSEDEADYYCAAWDDSLNGWLFGGGTKLTVLG
notes: as for B1
B7: 005-C04-2-7 (Fab, V domains shown)
VH: EVQLLESGGGLVQPGGSLRLSCAASGFTFSSYWWHWVRQAPGKGLEWVSDISRASPYTNYADSVKGRFTISRDNSKNTLYLQMNSLRAEDTAVYYCARGLDARRMDYWGQGTLVTVTS
VL: QSVLTQPPSASGTPGQRVTISCTGVSSNIGAGYVVHWYQQLPGTAPKLLIYRNNQRPSGVPDRFSGSKSGTSASLAISGLRSEDEADYYCAAWDDSLNGWLFGGGTKLTVLG
notes: as for B1
B8: 005-C04-4-3-7 (Fab, V domains shown)
VH: EVQLLESGGGLVQPGGSLRLSCAASGFTFSSYWMHWVRQAPGKGLEWVSDISSASSYTNYADSVKGRFTISRDNSKNTLYLQMNSLRAEDTAVYYCARGLDARRMDYWGQGTLVTVTS
VL: QSVLTQPPSASGTPGQRVTISCTGSSSNIGYGYVVHWYQQLPGTAPKLLIYRNNQRPSGVPDRFSGSKSGTSASLAISGLRSEDEADYYCAAWDDSLNGWLFGGGTKLTVLG
notes: as for B1
B9: 005-C04-18-10-4 (Fab, V domains shown)
VH: EVQLLESGGGLVQPGGSLRLSCAASGFTFSSYWMHWVRQAPGKGLEWVSDISSASSYTNYADSVKGRFTISRDNSKNTLYLQMNSLRAEDTAVYYCARGLDARRMDYWGQGTLVTVTS
VL: QSVLTQPPSASGTPGQRVTISCTGSSSNIGAGYVVHWYQQLPGTAPKLLIYRNNWRPSGVPDRFSGSKSGTSASLAISGLRSEDEADYYCAAWDDSLNGWLFGGGTKLTVLG
notes: as for B1
B10: 005-C04-21-1 (Fab, V domains shown)
VH: EVQLLESGGGLVQPGGSLRLSCAASGFTFSSYWNHWVRQAPGKGLEWVSDIARLSPYTNYADSVKGRFTISRDNSKNTLYLQMNSLRAEDTAVYYCARGLDARRMDYWGQGTLVTVTS
VL: QSVLTQPPSASGTPGQRVTISCTGSSSNIGYGYVVHWYQQLPGTAPKLLIYRNNVRQSGVPDRFSGSKSGTSASLAISGLRSEDEADYYCAAWDDSLNGWLFGGGTKLTVLG
notes: as for B1
B11: 005-C04-2-2 (Fab, V domains shown)
VH: EVQLLESGGGLVQPGGSLRLSCAASGFTFSSYWNHWVRQAPGKGLEWVSDMARLSPYTNYADSVKGRFTISRDNSKNTLYLQMNSLRAEDTAVYYCARGLDARRMDYWGQGTLVTVTS
VL: QSVLTQPPSASGTPGQRVTISCTGSSSNIGYGYVVHWYQQLPGTAPKLLIYRNNVRQSGVPDRFSGSKSGTSASLAISGLRSEDEADYYCAAWDDSLNGWLFGGGTKLTVLG
notes: as for B1
B12: 005-C04-29-17-2 (Fab, V domains shown)
VH: EVQLLESGGGLVQPGGSLRLSCAASGFTFSSYWMHWVRQAPGKGLEWVSDISSASSYTNYADSVKGRFTISRDNSKNTLYLQMNSLRAEDTAVYYCARGLDARRMDYWGQGTLVTVTS
VL: QSVLTQPPSASGTPGQRVTISCTGSSSNIGAGYVVHWYQQLPGTAPKLLIYRNNQRPSGVPDRFSGSKSGTSASLAISGLRSEDEADYYCAAWDDSLGGWLFGGGTKLTVLG
notes: as for B1
B13: 005-C04-19-2 (Fab, V domains shown)
VH: EVQLLESGGGLVQPGGSLRLSCAASGFTFSSYWNHWVRQAPGKGLEWVSDMARLSPYTNYADSVKGRFTISRDNSKNTLYLQMNSLRAEDTAVYYCARGLDARRMDYWGQGTLVTVTS
VL: QSVLTQPPSASGTPGQRVTISCTGSSSNIGYGYVVHWYQQLPGTAPKLLIYRNNQRQSGVPDRFSGSKSGTSASLAISGLRSEDEADYYCAAWDDSLNGWLFGGGTKLTVLG
notes: as for B1
B14: 005-C04-8-6 (Fab, V domains shown)
VH: EVQLLESGGGLVQPGGSLRLSCAASGFTFSSYWWHWVRQAPGKGLEWVSDMSRASSYTNYADSVKGRFTISRDNSKNTLYLQMNSLRAEDTAVYYCARGLDARRMDYWGQGTLVTVTS
VL: QSVLTQPPSASGTPGQRVTISCTGQSSNIGAGYVVHWYQQLPGTAPKLLIYRNNQRPSGVPDRFSGSKSGTSASLAISGLRSEDEADYYCAAWDDSLNGWLFGGGTKLTVLG
notes: as for B1
B15: 005-C04-25-6 (Fab, V domains shown)
VH: EVQLLESGGGLVQPGGSLRLSCAASGFTFSSYWWHWVRQAPGKGLEWVSDMSRLSSYTNYADSVKGRFTISRDNSKNTLYLQMNSLRAEDTAVYYCARGLDARRMDYWGQGTLVTVTS
VL: QSVLTQPPSASGTPGQRVTISCTGSSSNIGYGYVVHWYQQLPGTAPKLLIYRNNVRQSGVPDRFSGSKSGTSASLAISGLRSEDEADYYCAAWDDSLNGWLFGGGTKLTVLG
notes: as for B1
B16: 005-C04-20-2 (Fab, V domains shown)
VH: EVQLLESGGGLVQPGGSLRLSCAASGFTFSSYWNHWVRQAPGKGLEWVSDIARLSSYTNYADSVKGRFTISRDNSKNTLYLQMNSLRAEDTAVYYCARGLDARRMDYWGQGTLVTVTS
VL: QSVLTQPPSASGTPGQRVTISCTGSSSNIGYGYVVHWYQQLPGTAPKLLIYRNNQRPSGVPDRFSGSKSGTSASLAISGLRSEDEADYYCAAWDDSLNGWLFGGGTKLTVLG
notes: as for B1
B17: 005-C04-21-2 (Fab, V domains shown)
VH: EVQLLESGGGLVQPGGSLRLSCAASGFTFSSYWNHWVRQAPGKGLEWVSDMARASPYTNYADSVKGRFTISRDNSKNTLYLQMNSLRAEDTAVYYCARGLDARRMDYWGQGTLVTVTS
VL: QSVLTQPPSASGTPGQRVTISCTGSSSNIGYGYVVHWYQQLPGTAPKLLIYRNNVRPSGVPDRFSGSKSGTSASLAISGLRSEDEADYYCAAWDDSLNGWLFGGGTKLTVLG
notes: as for B1
B18: 005-C04-9-2 (Fab, V domains shown)
VH: EVQLLESGGGLVQPGGSLRLSCAASGFTFSSYWWHWVRQAPGKGLEWVSDIARASSYTNYADSVKGRFTISRDNSKNTLYLQMNSLRAEDTAVYYCARGLDARRMDYWGQGTLVTVTS
VL: QSVLTQPPSASGTPGQRVTISCTGSSSNIGYGYVVHWYQQLPGTAPKLLIYRNNWRQSGVPDRFSGSKSGTSASLAISGLRSEDEADYYCAAWDDSLNGWLFGGGTKLTVLG
notes: as for B1
B19: 005-C04-29-0 (Fab, V domains shown)
VH: EVQLLESGGGLVQPGGSLRLSCAASGFTFSSYWNHWVRQAPGKGLEWVSDMSRASSYTNYADSVKGRFTISRDNSKNTLYLQMNSLRAEDTAVYYCARGLDARRMDYWGQGTLVTVTS
VL: QSVLTQPPSASGTPGQRVTISCTGSSSNIGYGYVVHWYQQLPGTAPKLLIYRNNQRQSGVPDRFSGSKSGTSASLAISGLRSEDEADYYCAAWDDSLNGWLFGGGTKLTVLG
notes: as for B1
B20: 005-C04-18-10-2 (Fab, V domains shown)
VH: EVQLLESGGGLVQPGGSLRLSCAASGFTFSSYWMHWVRQAPGKGLEWVSDISSASSYTNYADSVKGRFTISRDNSKNTLYLQMNSLRAEDTAVYYCARGLDARRMDYWGQGTLVTVTS
VL: QSVLTQPPSASGTPGQRVTISCTGSSSNIGAGYVVHWYQQLPGTAPKLLIYRNNVRPSGVPDRFSGSKSGTSASLAISGLRSEDEADYYCAAWDDSLNGWLFGGGTKLTVLG
notes: as for B1

Each binder was assayed against T1, extracellular domain of human PRLR (monomeric, soluble) (human, UniProt P16471 25-234) (assay: ELISA: plate coated with human PRLR extracellular domain, Fab-containing E. coli supernatant, anti-flag-HRP, Amplex Red).
T1 construct: also called ECD-PRLR; ECD of PRLR
T1 sequence: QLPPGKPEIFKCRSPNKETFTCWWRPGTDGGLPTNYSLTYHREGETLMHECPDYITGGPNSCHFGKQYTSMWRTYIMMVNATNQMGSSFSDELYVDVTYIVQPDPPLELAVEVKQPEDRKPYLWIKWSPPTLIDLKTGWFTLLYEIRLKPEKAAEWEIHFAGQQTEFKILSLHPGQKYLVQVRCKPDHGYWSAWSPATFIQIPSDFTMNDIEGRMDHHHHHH
Description: 96 well microtiter plates were coated with 1 μg per milliliter of human PRLR. Plates were incubated over night at 4° C. After blocking with PBS buffer containing 3% bovine serum albumin, normalized E. coli-derived supernatants containing the Fab variants were added. Detection of formed complexes occurred via the addition of an anti-flag antibody (Sigma, A8592) labeled with horseradish peroxidase.
B1: binds. B2: binds. B3: binds. B4: binds. B5: binds. B6: binds. B7: binds. B8: binds. B9: binds. B10: binds. B11: binds. B12: binds. B13: binds. B14: binds. B15: binds. B16: binds. B17: binds. B18: binds. B19: binds. B20: binds.
